Results reported in paper doi:10.1101/2024.02.16.579620 (bioRxiv, 2024).
Values joined by “and” are separate entries in the source; they are usually repeats but may differ in a detail not shown here. Equal values may be shown once.

B1: FITC-labelled human Ire1α luminal domain (aa 24-449) (domain or fragment)
chain: STVTLPETLLFVSTLDGSLHAVSKRTGSIKWTLKEDPVLQVPTHVEEPAFLPDPNDGSLYTLGSKNNEGLTKLPFTIPELVQASPCRSSDGILYMGKKQDIWYVIDLLTGEKQQTLSSAFADSLCPSTSLLYLGRTEYTITMYDTKTRELRWNATYFDYAASLPEDDVDYKMSHFVSNGDGLVVTVDSESGDVLWIQNYASPVVAFYVWQREGLRKVMHINVAVETLRYLTFMSGEVGRITKWKYPFPKETEAKSKLTPTLYVGKYSTSLYASPSMVHEGVAVVPRGSTLPLLEGPQTDGVTIGDKGECVITPSTDVKFDPGLKSKNKLNYLRNYWLLIGHHETPLSASTKMLERFPNNLPKHRENVIPADSEKKSFEEVINLVDQTSENAPTTVSRDVEEKPAHAPARPEAPVDSMLKDMATIIL
modifications: FITC label (site not stated)
B2: human Ire1α luminal domain (aa 24-449), wild type (domain or fragment)
chain: STVTLPETLLFVSTLDGSLHAVSKRTGSIKWTLKEDPVLQVPTHVEEPAFLPDPNDGSLYTLGSKNNEGLTKLPFTIPELVQASPCRSSDGILYMGKKQDIWYVIDLLTGEKQQTLSSAFADSLCPSTSLLYLGRTEYTITMYDTKTRELRWNATYFDYAASLPEDDVDYKMSHFVSNGDGLVVTVDSESGDVLWIQNYASPVVAFYVWQREGLRKVMHINVAVETLRYLTFMSGEVGRITKWKYPFPKETEAKSKLTPTLYVGKYSTSLYASPSMVHEGVAVVPRGSTLPLLEGPQTDGVTIGDKGECVITPSTDVKFDPGLKSKNKLNYLRNYWLLIGHHETPLSASTKMLERFPNNLPKHRENVIPADSEKKSFEEVINLVDQTSENAPTTVSRDVEEKPAHAPARPEAPVDSMLKDMATIIL

Assays:
MST = target: the molecule itself; assay: MST
ΔEspP peptide = assay: dynamic light scattering
SEC = target: the molecule itself; assay: SEC

| Binder | Kd (MST) | binding result (ΔEspP peptide) | stoichiometry N (SEC) |
| --- | --- | --- | --- |
| B1 | 500 nM | – | – |
| B2 | – | binds | 2 and 4 |
